Patent EP4714970A1 (Akeso Biopharma Co., Ltd., dated 2026)
Where two headings read alike, the source gives them in different places. One block for each binder: values may come before it.

Columns and labels:
[1] = biological target: T1, CD73 on U87-MG cell membrane surface (UniProt P21589 27-549, limits assumed); assay: cell-based or functional assay
T1 sequence (looked up): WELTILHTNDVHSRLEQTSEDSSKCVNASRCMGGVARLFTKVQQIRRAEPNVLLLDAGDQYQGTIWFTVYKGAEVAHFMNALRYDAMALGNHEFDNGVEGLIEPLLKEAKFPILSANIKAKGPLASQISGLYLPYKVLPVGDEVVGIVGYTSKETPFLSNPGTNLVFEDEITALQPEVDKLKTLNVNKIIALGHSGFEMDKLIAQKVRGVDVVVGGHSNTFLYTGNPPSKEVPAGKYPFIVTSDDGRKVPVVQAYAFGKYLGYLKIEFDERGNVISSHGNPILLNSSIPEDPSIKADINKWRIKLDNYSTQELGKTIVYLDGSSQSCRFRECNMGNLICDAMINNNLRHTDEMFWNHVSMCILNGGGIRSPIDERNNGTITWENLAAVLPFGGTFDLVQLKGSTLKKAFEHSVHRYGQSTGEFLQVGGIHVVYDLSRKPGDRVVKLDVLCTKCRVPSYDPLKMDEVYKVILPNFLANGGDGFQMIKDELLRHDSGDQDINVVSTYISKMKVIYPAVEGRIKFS

hNT5E(1-552)-His [2] = biological target: T2, hNT5E(1-552)-His (human, UniProt P21589 27-552); assay: ELISA, NT5E-His coated 1 ug/mL
T2 construct: also called NT5E-His; not shown: His tag
T2 sequence (looked up): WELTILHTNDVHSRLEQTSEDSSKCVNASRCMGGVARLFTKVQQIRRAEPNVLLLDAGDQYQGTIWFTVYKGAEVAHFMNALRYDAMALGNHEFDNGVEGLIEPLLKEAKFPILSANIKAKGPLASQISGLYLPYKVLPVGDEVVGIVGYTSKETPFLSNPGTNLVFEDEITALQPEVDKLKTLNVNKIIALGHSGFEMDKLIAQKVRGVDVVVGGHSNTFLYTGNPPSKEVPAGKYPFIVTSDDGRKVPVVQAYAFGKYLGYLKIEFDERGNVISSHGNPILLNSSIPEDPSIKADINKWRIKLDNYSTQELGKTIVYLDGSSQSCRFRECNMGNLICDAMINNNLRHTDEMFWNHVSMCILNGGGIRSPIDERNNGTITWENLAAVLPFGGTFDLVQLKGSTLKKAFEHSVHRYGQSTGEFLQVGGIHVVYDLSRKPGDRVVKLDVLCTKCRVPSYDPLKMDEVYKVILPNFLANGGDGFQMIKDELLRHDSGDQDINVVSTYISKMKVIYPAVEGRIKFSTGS

hNT5E(1-552)-His [3] = biological target: T2, hNT5E(1-552)-His; assay: ELISA, NT5E-His coated 1 ug/mL; remark: listed apart in the source
hNT5E(1-552)-His [4] = biological target: T2, hNT5E(1-552)-His; assay: ELISA, NT5E-His coated 1 ug/mL; remark: listed apart in the source
[5] = biological target: T1, CD73 on U87-MG cell membrane surface; assay: flow cytometry on U87-MG cells
hNT5E(1-552)-His [6] = biological target: T2, hNT5E(1-552)-His; assay: BLI (Fortebio), antigen on HIS1K sensor, antibody in solution, 37 C, 1:1 fit
human LAG3-mG1Fc [7] = biological target: T3, human LAG3-mG1Fc (human; mouse, UniProt P18627 23-450, limits assumed); assay: ELISA, LAG3-mG1Fc coated 2 ug/mL
T3 construct: Made by Akeso; also called huLAG3-mG1Fc; HuLAG3-mG1Fc; not shown: mouse IgG1 Fc (mG1Fc); limits not readable
T3 sequence (looked up): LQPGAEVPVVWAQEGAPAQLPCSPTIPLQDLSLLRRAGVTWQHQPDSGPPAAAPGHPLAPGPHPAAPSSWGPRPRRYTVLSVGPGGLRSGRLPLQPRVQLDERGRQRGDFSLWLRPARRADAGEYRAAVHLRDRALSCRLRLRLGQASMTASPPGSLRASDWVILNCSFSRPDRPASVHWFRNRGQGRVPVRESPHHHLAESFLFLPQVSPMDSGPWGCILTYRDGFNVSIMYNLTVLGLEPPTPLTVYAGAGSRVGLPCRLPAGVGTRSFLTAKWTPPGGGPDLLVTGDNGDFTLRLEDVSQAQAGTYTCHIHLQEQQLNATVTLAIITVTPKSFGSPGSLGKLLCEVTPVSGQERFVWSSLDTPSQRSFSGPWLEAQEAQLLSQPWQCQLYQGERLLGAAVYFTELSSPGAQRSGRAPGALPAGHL

[8] = biological target: T4, human LAG3 on cell surface (293T-LAG3 cells; Jurkat-NFAT-PD1-LAG3 cells) (human, UniProt P18627 23-525); assay: flow cytometry on 293T-LAG3 cells
T4 construct: whole, on cells; also called huLAG3FL
T4 sequence (looked up): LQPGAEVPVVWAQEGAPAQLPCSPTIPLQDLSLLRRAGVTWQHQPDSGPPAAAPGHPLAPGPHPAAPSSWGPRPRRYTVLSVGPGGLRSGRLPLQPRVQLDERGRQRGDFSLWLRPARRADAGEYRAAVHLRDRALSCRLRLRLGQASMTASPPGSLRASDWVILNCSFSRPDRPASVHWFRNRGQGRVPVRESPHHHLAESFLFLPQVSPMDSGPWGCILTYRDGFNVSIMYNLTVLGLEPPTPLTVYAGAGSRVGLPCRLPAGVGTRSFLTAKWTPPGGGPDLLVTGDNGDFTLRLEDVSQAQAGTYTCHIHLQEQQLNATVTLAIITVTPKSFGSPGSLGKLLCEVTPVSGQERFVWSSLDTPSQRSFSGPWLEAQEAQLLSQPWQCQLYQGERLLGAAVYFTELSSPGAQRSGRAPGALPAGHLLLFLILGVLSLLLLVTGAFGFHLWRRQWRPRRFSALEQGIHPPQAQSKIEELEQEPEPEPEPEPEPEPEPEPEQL

[9] = biological target: T4, human LAG3 on cell surface (293T-LAG3 …); assay: flow cytometry on 293T-LAG3 cells; remark: listed apart in the source
human LAG3-mG1Fc [10] = biological target: T3, human LAG3-mG1Fc; assay: BLI (Fortebio), antigen on AMC sensor, antibody in solution, 30 C, 1:1 fit
human LAG3-mG1Fc [11] = biological target: T3, human LAG3-mG1Fc; assay: competitive flow cytometry, 3 nM LAG3-mG1Fc on Raji cells (competitor MHC II)
human LAG3-mG1Fc [12] = biological target: T3, human LAG3-mG1Fc; assay: as above; remark: listed apart in the source

EC50 (nM), inhibition of CD73 enzyme activity on U87-MG cells [1]: 0.152 nM | Maximum inhibition rate (%) of CD73 enzyme activity on U87-MG cells [1]: 58.3%
B1: MEDI9447 (antibody, V domains shown)
VH: EVQLLESGGGLVQPGGSLRLSCAASGFTFSSYAYSWVRQAPGKGLEWVSAISGSGGRTYYADSVKGRFTISRDNSKNTLYLQMNSLRAEDTAVYYCARLGYGRVDEWGRGTLVTVSS
VL: QSVLTQPPSASGTPGQRVTISCSGSLSNIGRNPVNWYQQLPGTAPKLLIYLDNLRLSGVPDRFSGSKSGTSASLAISGLQSEDEADYYCATWDDSHPGWTFGGGTKLTVL

EC50 (hNT5E(1-552)-His [2]): 0.011 nM | EC50 (hNT5E(1-552)-His [3]): 0.011 nM | EC50 (hNT5E(1-552)-His [4]): 0.015 nM | EC50 [5]: 6.06 nM | Kd (hNT5E(1-552)-His [6]): 0.505 nM | Maximum signal height of analyte (nm) (hNT5E(1-552)-His [6]): 0.168 nm | S E (kdis) (hNT5E(1-552)-His [6]): 3.54e-06 s⁻¹
B2: 19F3H2L3(hG1DM) (antibody, human IgG1, kappa, L234A L235A, V domains shown)
VH: QVQLVQSGAEVVKPGASVKVSCKASGYSFTGYTMNWVRQAPGQNLEWIGLINPYNAGTSYNQKFQGKVTLTVDKSTSTAYMELSSLRSEDTAVYYCARSEYRYGGDYFDYWGQGTTLTVSS
VL: DIVMTQSPSSLAVSVGERVTISCKSSQSLLNSSNQKNYLAWYQQKPGQAPKLLIYFASTRESGVPDRFSGSGSGTDFTLTISSLQAEDVAVYYCQQHYDTPYTFGGGTKLEIKR
notes: Humanized anti-CD73 IgG1 with L234A/L235A

EC50 [5]: 8.47 nM
B3: CPI-006 (antibody, V domains shown)
VH: QVQLVQSGAEVEKPGASVKVSCKASGYTFTSYWITWVRQAPGQGLEWMGDIYPGSGNTNYNEKFKTRVTITADKSTSTAYMELSSLRSEDTAVYYCAKEGGLTTEDYALDYWGQGTLVTVSS
VL: EIVLTQSPATLSLSPGERATLSCRASKNVSTSGYSYMHWYQQKPGQAPRLLIYLASNLESGIPPRFSGSGYGTDFTLTINNIESEDAAYYFCQHSRELPFTFGQGTKVEIKR

EC50 (human LAG3-mG1Fc [7]): 0.123 nM | EC50 [8]: 4.86 nM | EC50 [9]: 0.501 nM | Kd (human LAG3-mG1Fc [10]): 0.3 nM | Maximum signal height of analyte (nm) (human LAG3-mG1Fc [10]): 0.878 nm | S E (kdis) (human LAG3-mG1Fc [10]): 2.94e-06 s⁻¹ | S E (kon) (human LAG3-mG1Fc [10]): 2330 M⁻¹ s⁻¹ | koff (human LAG3-mG1Fc [10]): 0.000121 s⁻¹ | kon (human LAG3-mG1Fc [10]): 405000 M⁻¹ s⁻¹ | EC50 (human LAG3-mG1Fc [11]): 1.46 nM | EC50 (human LAG3-mG1Fc [12]): 1.44 nM
B4: H9L8(hG4WT) (antibody, human IgG4 S228P, kappa, V domains shown)
VH: QVQLQQWGAGLLKPSETLSLTCAVYGGSISDYYWNWIRQPPGKGLEWIGEINYRGTTNSNPSLKSRVTLSLDTSKNQFSLKLRSVTAADTAVYYCAFGYSDYEYDWFDPWGQGTLVTVSS
VL: EIVLTQSPATLSLSPGERATLSCRASQTISSYLAWYQQKPGQAPRLLIYDASNRATGIPARFSGSGSGTDFTLTISSLEPEDFAVYYCQQRSNWPITFGQGTNLEIKR
notes: Humanized anti-LAG3 IgG4 (wild type), kappa

EC50 (human LAG3-mG1Fc [7]): 0.129 nM | EC50 [8]: 4.53 nM | EC50 (human LAG3-mG1Fc [11]): 1.48 nM
B5: H9L9(hG4WT) (antibody, human IgG4 S228P, kappa, V domains shown)
VH: QVQLQQWGAGLLKPSETLSLTCAVYGGSISDYYWNWIRQPPGKGLEWIGEINYRGTTNSNPSLKSRVTLSLDTSKNQFSLKLRSVTAADTAVYYCAFGYSDYEYDWFDPWGQGTLVTVSS
VL: EIVLTQSPATLSLSPGERATLSCRASQTISSYLAWYQQKPGQAPRLLIYDGSNRATGIPARFSGSGSGTDFTLTISSLEPEDFAVYYCQQRSNWPLTFGQGTNLEIKR
notes: as for B4

EC50 (human LAG3-mG1Fc [7]): 0.14 nM | EC50 [8]: 3.92 nM | EC50 (human LAG3-mG1Fc [11]): 1.44 nM
B6: H9L10(hG4WT) (antibody, human IgG4 S228P, kappa, V domains shown)
VH: QVQLQQWGAGLLKPSETLSLTCAVYGGSISDYYWNWIRQPPGKGLEWIGEINYRGTTNSNPSLKSRVTLSLDTSKNQFSLKLRSVTAADTAVYYCAFGYSDYEYDWFDPWGQGTLVTVSS
VL: EIVLTQSPATLSLSPGERATLSCRASQSISSYLAWYQQKPGQAPRLLIYDGSNRATGIPARFSGSGSGTDFTLTISSLEPEDFAVYYCQQRSNWPITFGQGTNLEIKR
notes: Humanized anti-LAG3 IgG4 (wild type), kappa; also called HIL10(hG4WT)
